Series [1] deals with T1, lactoperoxidase (Bos taurus, UniProt P80025). In kind it is biochemical.
Series [2] deals with T1, lactoperoxidase. As to conditions: read-out: Km, / µM; 80 uM H2O2, 2 mM SCN-, pH 7.4, 37 C; substrate.
Series [3] relates to O=C(O)c1cc(O)ccc1O. As to the kind of experiment: purified protein, by the assay type.
Series [4] concerns O=C(O)/C=C/c1ccc(O)cc1. Put plainly: purified protein, by the assay type.
In series [5] the test system is COc1ccc(C(=O)O)cc1O. Put plainly: purified protein, by the assay type.
The subject of series [6] is O=C(O)c1ccc(O)cc1O. As to the kind of experiment: purified protein, by the assay type.
The subject of series [7] is O=C1C[C@@H](c2ccc(O)c(O)c2)Oc2cc(O)cc(O)c21. As to the kind of experiment: purified protein, by the assay type.
The test system of series [8] is O=C(O)c1ccc(O)c(O)c1O. As to the kind of experiment: purified protein, by the assay type.
Series [9] relates to O=C(O)c1cccc(O)c1O. As to the kind of experiment: purified protein, by the assay type.
Series [10] deals with COc1cc(C(=O)O)ccc1O. Put plainly: purified protein, by the assay type.
In series [11] the test system is O=C(O)c1cc(O)c(O)c(O)c1. Put plainly: purified protein, by the assay type.
For series [12], the system named is O=C(O)c1c(O)cccc1O. As to the kind of experiment: purified protein, by the assay type.
Series [13] has as its system O=C1C[C@@H](c2ccc(O)cc2)Oc2cc(O)cc(O)c21. Put plainly: purified protein, by the assay type.
The subject of series [14] is OCCc1ccc(O)cc1. As to the kind of experiment: purified protein, by the assay type.
Series [15] has as its system O=C(O)c1ccc(O)cc1. As to the kind of experiment: purified protein, by the assay type.
Series [16] concerns O=C1c2c(O)cc(O)cc2O[C@H](c2ccc(O)c(O)c2)[C@H]1O. Put plainly: purified protein, by the assay type.
For series [17], the system named is O=C(O)/C=C/c1cccc(O)c1. As to the kind of experiment: purified protein, by the assay type.
Series [18] concerns O=C(O)c1cc(O)cc(O)c1. As to the kind of experiment: purified protein, by the assay type.
Series [19] deals with O=C(O)c1cccc(O)c1. As to the kind of experiment: purified protein, by the assay type.
The test system of series [20] is O=C(O)c1ccccc1O. As to the kind of experiment: purified protein, by the assay type.
The test system of series [21] is O=c1c(O)c(-c2ccc(O)c(O)c2)oc2cc(O)cc(O)c12. Put plainly: purified protein. The following applies: heme.
Series [22] deals with OCCc1ccc(O)c(O)c1. Put plainly: purified protein. As to conditions: heme substrate channel of LPO.
The test system of series [23] is O=c1cc(-c2ccc(O)cc2)oc2cc(O)cc(O)c12. Put plainly: purified protein. As to conditions: heme.
Series [24] deals with O=C1C[C@@H](c2ccc(O)c(O)c2)Oc2cc(O)cc(O)c21. As to the kind of experiment: purified protein. As to conditions: heme.
Series [25] has as its system O=C(O)c1ccc(O)c(O)c1. Put plainly: purified protein. As to conditions: heme.
In series [26] the test system is O=c1cc(-c2ccc(O)c(O)c2)oc2cc(O)cc(O)c12. As to the kind of experiment: purified protein. The following applies: heme.
The test system of series [27] is Oc1cc(O)c2c(c1)O[C@H](c1ccc(O)c(O)c1)[C@H](O)C2. Put plainly: purified protein. The following applies: heme.
Series [28] relates to O=C(O)/C=C/c1ccc(O)c(O)c1. As to the kind of experiment: purified protein. As to conditions: heme.

Broadly, the IC50 is the concentration that inhibits the measured activity by half. High values mean a need for much substance, low ones inhibition by little substance. As usually defined, the kcat is the maximal rate divided by the concentration of active sites. For orientation: kcat/Km means the second-order rate constant that governs catalysis at low substrate concentration.

`O=C(O)c1c(O)cc(O)cc1O` [2,4,6-trihydroxybenzoic acid] returned a half-maximal inhibitory concentration (IC50) in series [1] of 36.7 ± 9.6 µM.

For `O=c1cc(-c2ccccc2)oc2cc(O)cc(O)c12` [chrysin], the concentration for half-maximal inhibition (IC50) in series [1] came out at 0.23 ± 0.15 µM.

As for `COc1ccc(C(=O)O)cc1OC` [3,4-dimethoxybenzoic acid], the Km in series [2] was determined as 981 ± 69.8 µM.

Turning to lactoperoxidase (Bos taurus), the Km in [3] was 304.2 ± 0.1 µM; in series [4], 35.1 ± 0.1 µM; in series [5], 803.5 ± 147.2 µM; in series [6], 119.6 ± 8.3 µM; in series [7] it was 0.4 ± 0.0 µM; in series [8] it was 84.8 ± 0.0 µM. Also, the Km worked out at 71.3 ± 1.3 µM in series [9]; 948.4 ± 0.2 µM in series [10]; 176.8 ± 0.0 µM in [11]; 149.1 ± 51.4 µM in series [12]; 0.2 ± 0.0 µM in series [13]; 4.5 ± 0.0 µM in series [14]. Besides, the Km in series [15] turned out to be 119.6 ± 8.1 µM; in series [16] it was 0.8 ± 0.0 µM; in series [17], 37.8 ± 8.9 µM; in series [18] it was 118.0 ± 7.9 µM; in [19] it was 144.2 ± 28.9 µM; in series [20], 1638.4 ± 439.3 µM. The Km is 1.7 ± 0.2 µM in [21]; 1.6 ± 0.1 µM in series [22]; 0.1 ± 0.0 µM in series [23]; 0.358 ± 0.005 µM in series [24]; 63.9 ± 51.4 µM in [25]; 0.2 ± 0.0 µM in series [26]. Besides, the Km was determined as 0.6 ± 0.0 µM in series [27] and 6.9 ± 0.3 µM in [28]. Also, the kcat in series [3] was determined as 22.4 s⁻¹; in series [4], 11 s⁻¹; in [5], 67.7 s⁻¹; in series [6], 7 s⁻¹; in [7] it was 52.4 s⁻¹; in series [8], 24.5 s⁻¹. The kcat turned out to be 17.9 s⁻¹ in series [9]; 78.5 s⁻¹ in series [10]; 30.9 s⁻¹ in [11]; 14.8 s⁻¹ in [12]; 19 s⁻¹ in series [13]; 39 s⁻¹ in series [14]. Moreover, the kcat in series [15] came to 16.7 s⁻¹; in series [16], 48.2 s⁻¹; in series [17], 24 s⁻¹; in series [18], 22.7 s⁻¹; in [19] it was 36.5 s⁻¹; in series [21] it was 102 s⁻¹. For the same compound, the kcat was determined as 67 s⁻¹ in series [22]; 13.1 s⁻¹ in [23]; 59.2 s⁻¹ in series [25]; 91.6 s⁻¹ in series [26]; 41.4 s⁻¹ in series [27]; 37.2 s⁻¹ in series [28]. The kcat/Km in series [3] amounted to 70000 M⁻¹ s⁻¹; in series [4], 310000 M⁻¹ s⁻¹; in series [5] it was 80000 M⁻¹ s⁻¹; in series [6], 60000 M⁻¹ s⁻¹; in series [7], 1.46e+08 M⁻¹ s⁻¹; in series [8], 290000 M⁻¹ s⁻¹. For the same compound, the kcat/Km in series [9] amounted to 250000 M⁻¹ s⁻¹; in series [10], 80000 M⁻¹ s⁻¹; in series [11], 180000 M⁻¹ s⁻¹; in series [12], 100000 M⁻¹ s⁻¹; in series [13] it was 1.03e+08 M⁻¹ s⁻¹; in series [14] it was 8.73e+06 M⁻¹ s⁻¹. Besides, the kcat/Km in [15] amounted to 140000 M⁻¹ s⁻¹; in series [16], 6.3e+07 M⁻¹ s⁻¹; in [17] it was 630000 M⁻¹ s⁻¹; in series [18], 190000 M⁻¹ s⁻¹; in series [19] it was 250000 M⁻¹ s⁻¹; in [21] it was 6.07e+07 M⁻¹ s⁻¹. Besides, the kcat/Km in series [22] was 4.21e+07 M⁻¹ s⁻¹; in series [23], 1.22e+08 M⁻¹ s⁻¹; in [25], 930000 M⁻¹ s⁻¹; in series [26] it was 4.72e+08 M⁻¹ s⁻¹; in series [27], 6.84e+07 M⁻¹ s⁻¹; in [28] it was 5.4e+06 M⁻¹ s⁻¹.

(Values after article PMC5669353 (Biochemistry and Biophysics Reports, 2015).)
